Laboratory results from paper PMC7440162 (Cell, 2020).

Assays:
Test in all cases: SPR
PTPRS ECD-Fc = biological target: T1, PTPRS ECD-Fc (human, UniProt Q13332 30-1282)
T1 sequence: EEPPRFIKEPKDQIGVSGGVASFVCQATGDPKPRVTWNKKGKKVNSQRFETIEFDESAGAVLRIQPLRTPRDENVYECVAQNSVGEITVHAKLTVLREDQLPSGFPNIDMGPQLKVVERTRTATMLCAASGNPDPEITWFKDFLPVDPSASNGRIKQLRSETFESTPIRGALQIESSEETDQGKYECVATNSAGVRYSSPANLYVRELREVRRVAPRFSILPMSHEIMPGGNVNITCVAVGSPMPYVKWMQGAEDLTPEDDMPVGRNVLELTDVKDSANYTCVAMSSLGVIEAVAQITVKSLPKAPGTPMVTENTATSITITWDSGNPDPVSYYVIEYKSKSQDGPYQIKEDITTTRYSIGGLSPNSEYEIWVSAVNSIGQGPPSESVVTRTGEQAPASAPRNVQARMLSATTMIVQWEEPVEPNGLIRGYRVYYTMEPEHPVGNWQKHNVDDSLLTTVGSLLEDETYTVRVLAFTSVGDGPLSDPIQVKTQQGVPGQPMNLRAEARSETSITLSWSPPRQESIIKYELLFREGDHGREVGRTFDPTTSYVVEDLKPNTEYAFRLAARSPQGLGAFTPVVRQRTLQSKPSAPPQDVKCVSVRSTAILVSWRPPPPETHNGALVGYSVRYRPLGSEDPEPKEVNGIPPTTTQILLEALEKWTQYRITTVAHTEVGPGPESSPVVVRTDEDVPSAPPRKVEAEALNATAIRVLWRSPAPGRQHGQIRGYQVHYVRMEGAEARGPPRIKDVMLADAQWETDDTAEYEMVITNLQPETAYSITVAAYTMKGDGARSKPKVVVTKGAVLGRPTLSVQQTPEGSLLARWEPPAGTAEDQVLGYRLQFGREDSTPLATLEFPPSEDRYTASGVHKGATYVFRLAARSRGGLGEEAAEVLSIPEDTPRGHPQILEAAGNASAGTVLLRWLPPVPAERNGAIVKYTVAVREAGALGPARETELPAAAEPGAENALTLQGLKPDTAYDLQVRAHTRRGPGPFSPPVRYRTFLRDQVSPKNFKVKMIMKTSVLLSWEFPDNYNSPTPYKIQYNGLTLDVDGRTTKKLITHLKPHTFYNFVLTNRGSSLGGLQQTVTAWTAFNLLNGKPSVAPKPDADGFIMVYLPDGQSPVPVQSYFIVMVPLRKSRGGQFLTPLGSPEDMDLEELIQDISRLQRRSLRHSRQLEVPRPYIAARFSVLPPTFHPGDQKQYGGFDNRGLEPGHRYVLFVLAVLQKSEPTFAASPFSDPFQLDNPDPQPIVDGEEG

FGFR3 ECD-Fc = biological target: T2, FGFR3 ECD-Fc (human, UniProt P22607 23-375)
T2 sequence: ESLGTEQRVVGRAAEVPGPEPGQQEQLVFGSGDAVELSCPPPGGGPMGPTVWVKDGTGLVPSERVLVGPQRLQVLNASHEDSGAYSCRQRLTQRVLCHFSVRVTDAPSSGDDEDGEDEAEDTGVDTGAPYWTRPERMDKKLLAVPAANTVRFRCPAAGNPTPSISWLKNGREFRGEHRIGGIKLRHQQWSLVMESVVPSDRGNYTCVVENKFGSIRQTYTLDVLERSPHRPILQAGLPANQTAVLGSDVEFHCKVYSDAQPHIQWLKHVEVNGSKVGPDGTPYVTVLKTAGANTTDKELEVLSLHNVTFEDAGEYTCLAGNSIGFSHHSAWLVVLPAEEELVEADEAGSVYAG

mouse Lepr ECD-Fc = biological target: T3, mouse Lepr ECD-Fc (mouse, UniProt P48356 22-839, biotin on the AviTag (as SPR ligand))
T3 sequence: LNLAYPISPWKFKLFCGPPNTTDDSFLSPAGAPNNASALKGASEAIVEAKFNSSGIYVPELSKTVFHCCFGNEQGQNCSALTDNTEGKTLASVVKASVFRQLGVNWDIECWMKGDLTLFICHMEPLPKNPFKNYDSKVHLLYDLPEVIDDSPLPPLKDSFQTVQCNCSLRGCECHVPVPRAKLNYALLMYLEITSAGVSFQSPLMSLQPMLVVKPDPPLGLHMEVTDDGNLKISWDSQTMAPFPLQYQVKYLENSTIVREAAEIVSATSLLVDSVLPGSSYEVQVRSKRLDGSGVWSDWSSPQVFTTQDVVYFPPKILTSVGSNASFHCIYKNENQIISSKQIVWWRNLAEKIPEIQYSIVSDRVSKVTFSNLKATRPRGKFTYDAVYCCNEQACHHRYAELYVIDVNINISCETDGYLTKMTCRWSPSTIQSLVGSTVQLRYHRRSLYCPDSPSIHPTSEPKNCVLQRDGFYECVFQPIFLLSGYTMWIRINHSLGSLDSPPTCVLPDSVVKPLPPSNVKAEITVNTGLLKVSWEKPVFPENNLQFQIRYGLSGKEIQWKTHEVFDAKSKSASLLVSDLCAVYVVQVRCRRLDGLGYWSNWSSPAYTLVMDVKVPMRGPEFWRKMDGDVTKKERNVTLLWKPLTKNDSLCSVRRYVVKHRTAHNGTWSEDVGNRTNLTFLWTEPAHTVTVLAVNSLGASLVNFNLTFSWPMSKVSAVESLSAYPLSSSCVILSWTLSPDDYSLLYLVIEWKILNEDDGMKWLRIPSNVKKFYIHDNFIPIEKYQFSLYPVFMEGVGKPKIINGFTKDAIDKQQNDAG

human ISLR2 ECD-Fc = biological target: T4, human ISLR2 ECD-Fc (human, UniProt Q6UXK2 19-589, biotin on the AviTag (as SPR ligand))
T4 sequence: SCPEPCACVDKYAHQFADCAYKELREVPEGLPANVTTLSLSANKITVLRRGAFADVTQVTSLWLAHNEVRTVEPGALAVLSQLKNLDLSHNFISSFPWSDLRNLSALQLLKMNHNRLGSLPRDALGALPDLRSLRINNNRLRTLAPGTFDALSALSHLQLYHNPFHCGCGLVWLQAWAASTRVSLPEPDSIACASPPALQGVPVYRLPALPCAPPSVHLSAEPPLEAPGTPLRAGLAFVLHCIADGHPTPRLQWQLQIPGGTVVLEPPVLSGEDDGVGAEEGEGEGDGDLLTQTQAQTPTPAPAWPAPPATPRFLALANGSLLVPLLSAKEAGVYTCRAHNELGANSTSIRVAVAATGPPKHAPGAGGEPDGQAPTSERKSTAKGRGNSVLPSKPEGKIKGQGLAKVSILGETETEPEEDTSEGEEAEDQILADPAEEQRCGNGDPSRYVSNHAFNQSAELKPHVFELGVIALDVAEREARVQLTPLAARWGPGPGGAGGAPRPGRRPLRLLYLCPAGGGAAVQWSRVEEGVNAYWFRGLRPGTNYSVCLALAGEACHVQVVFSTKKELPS

mouse Islr2 ECD-Fc = biological target: T5, mouse Islr2 ECD-Fc (mouse, UniProt Q5RKR3 20-589, biotin on the AviTag (as SPR ligand))
T5 sequence: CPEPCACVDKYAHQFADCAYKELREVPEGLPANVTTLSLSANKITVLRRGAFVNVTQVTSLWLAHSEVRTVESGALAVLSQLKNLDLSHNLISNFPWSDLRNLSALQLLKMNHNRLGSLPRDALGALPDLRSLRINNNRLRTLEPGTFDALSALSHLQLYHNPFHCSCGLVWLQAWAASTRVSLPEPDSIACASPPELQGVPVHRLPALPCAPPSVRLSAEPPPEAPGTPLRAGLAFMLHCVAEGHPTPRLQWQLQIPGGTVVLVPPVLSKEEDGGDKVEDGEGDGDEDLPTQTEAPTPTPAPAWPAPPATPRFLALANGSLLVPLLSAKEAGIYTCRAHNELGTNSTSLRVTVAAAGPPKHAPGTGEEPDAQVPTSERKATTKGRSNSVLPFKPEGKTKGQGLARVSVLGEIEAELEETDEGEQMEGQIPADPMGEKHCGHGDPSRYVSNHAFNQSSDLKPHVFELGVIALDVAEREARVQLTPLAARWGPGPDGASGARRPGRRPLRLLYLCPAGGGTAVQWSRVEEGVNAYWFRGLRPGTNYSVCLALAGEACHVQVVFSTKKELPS

ICAM5 ECD-Fc = biological target: T6, ICAM5 ECD-Fc (human, UniProt Q9UMF0 32-835, biotin on the AviTag (as SPR ligand))
T6 sequence: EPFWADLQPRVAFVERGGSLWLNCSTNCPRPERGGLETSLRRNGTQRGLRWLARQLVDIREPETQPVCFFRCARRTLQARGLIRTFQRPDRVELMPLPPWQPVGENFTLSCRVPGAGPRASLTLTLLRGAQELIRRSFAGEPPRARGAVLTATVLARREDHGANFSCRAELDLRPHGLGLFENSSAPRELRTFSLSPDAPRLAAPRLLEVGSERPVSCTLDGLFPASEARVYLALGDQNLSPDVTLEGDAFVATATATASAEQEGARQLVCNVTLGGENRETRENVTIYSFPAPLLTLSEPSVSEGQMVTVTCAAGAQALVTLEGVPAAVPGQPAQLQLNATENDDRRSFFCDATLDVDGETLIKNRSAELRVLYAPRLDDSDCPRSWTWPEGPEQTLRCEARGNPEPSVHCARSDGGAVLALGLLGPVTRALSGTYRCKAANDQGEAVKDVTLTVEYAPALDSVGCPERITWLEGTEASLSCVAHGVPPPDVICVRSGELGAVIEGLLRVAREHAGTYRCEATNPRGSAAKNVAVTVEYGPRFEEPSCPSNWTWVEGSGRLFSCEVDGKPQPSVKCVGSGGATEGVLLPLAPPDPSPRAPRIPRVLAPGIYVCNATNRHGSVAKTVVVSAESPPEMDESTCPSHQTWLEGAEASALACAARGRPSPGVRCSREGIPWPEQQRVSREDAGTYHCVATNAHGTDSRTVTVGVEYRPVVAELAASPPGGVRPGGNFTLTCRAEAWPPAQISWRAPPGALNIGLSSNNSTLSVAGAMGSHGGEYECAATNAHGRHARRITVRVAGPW

WFIKKN2-Fc = biological target: T7, WFIKKN2-Fc (human, UniProt Q8TEU8 35-576, biotin on the AviTag (as SPR ligand))
T7 sequence: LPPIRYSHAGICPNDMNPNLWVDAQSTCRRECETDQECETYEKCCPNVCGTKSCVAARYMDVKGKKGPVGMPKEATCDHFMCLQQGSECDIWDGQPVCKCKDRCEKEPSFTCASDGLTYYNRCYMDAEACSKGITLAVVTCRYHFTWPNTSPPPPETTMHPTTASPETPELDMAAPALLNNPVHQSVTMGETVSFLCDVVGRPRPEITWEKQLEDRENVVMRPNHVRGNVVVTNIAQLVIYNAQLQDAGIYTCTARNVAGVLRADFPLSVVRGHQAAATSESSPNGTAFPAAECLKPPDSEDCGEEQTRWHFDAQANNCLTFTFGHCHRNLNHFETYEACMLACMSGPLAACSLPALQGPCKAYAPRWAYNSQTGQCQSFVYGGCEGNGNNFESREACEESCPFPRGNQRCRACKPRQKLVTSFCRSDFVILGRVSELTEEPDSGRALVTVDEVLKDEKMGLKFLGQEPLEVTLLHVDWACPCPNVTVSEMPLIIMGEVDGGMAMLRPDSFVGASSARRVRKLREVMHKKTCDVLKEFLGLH

LTF-Fc = LTF-Fc (human, UniProt P02788, biotin on the AviTag (as SPR ligand))

Measured: binding result

Chain of LTF-Fc (P02788 20-710): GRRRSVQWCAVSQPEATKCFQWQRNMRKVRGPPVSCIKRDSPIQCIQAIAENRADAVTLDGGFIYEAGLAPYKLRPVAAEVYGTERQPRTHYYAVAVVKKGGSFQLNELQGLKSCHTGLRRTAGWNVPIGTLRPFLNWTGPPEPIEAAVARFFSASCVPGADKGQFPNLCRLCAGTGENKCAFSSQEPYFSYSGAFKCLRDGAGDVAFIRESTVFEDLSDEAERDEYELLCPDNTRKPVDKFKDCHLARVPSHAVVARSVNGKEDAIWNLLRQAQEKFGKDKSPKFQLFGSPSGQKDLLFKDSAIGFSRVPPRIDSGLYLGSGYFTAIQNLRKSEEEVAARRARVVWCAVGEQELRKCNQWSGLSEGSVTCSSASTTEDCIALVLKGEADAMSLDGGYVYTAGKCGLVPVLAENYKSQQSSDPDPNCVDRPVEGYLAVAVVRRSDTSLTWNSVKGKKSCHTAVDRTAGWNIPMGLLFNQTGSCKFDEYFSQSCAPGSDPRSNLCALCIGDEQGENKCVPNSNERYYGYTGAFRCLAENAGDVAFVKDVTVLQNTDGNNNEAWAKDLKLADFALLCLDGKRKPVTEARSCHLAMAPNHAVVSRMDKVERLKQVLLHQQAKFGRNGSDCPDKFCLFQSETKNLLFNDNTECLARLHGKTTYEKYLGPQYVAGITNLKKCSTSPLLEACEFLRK

B1: IL1RAPL2 ECD-Fc (Fc fusion)
chain: TNLKMVSKRNSVDGCIDWSVDLKTYMALAGEPVRVKCALFYSYIRTNYSTAQSTGLRLMWYKNKGDLEEPIIFSEVRMSKEEDSIWFHSAEAQDSGFYTCVLRNSTYCMKVSMSLTVAENESGLCYNSRIRYLEKSEVTKRKEISCPDMDDFKKSDQEPDVVWYKECKPKMWRSIIIQKGNALLIQEVQEEDGGNYTCELKYEGKLVRRTTELKVTALLTDKPPKPLFPMENQPSVIDVQLGKPLNIPCKAFFGFSGESGPMIYWMKGEKFIEELAGHIREGEIRLLKEHLGEKEVELALIFDSVVEADLANYTCHVENRNGRKHASVLLRKKDLIYK
modifications: biotin on the AviTag (as SPR ligand)
binds: PTPRS ECD-Fc | FGFR3 ECD-Fc

B2: Recombinant Mouse Leptin Protein (monomer) (ligand)
chain: VPIQKVQDDTKTLIKTIVTRINDISHTQSVSAKQRVTGLDFIPGLHPILSLSKMDQTLAVYQQVLTSLPSQNVLQIANDLENLRDLLHLLAFSKSCSLPQTSGLQKPESLDGVLEASLYSTEVVALSRLQGSLQDILQQLDVSPEC
binds: mouse Lepr ECD-Fc | human ISLR2 ECD-Fc | mouse Islr2 ECD-Fc

B3: IL-6Rα ECD-Fc (Fc fusion)
chain: LAPRRCPAQEVARGVLTSLPGDSVTLTCPGVEPEDNATVHWVLRKPAAGSHPSRWAGMGRRLLLRSVQLHDSGNYSCYRAGRPAGTVHLLVDVPPEEPQLSCFRKSPLSNVVCEWGPRSTPSLTTKAVLLVRKFQNSPAEDFQEPCQYSQESQKFSCQLAVPEGDSSFYIVSMCVASSVGSKFSKTQTFQGCGILQPDPPANITVTAVARNPRWLSVTWQDPHSWNSSFYRLRFELRYRAERSKTFTTWMVKDLQHHCVIHDAWSGLRHVVQLRAQEEFGQGEWSEWSPEAMGTPWTESRSPPAENEVSTPMQALTTNKDDDNILFRDSANATSLPVQDSSSVPLP
modifications: biotin on the AviTag (as SPR ligand)
binds: human ISLR2 ECD-Fc | ICAM5 ECD-Fc | WFIKKN2-Fc | LTF-Fc
